The source of these data is publication PMC4174979.

In the assay the target is WRN_(235–526) (human). Put plainly: SEC. For orientation: In gel filtration, larger molecules generally elute earlier.

As usually defined, the stoichiometry N is a count of units in the complex or per binding partner.

WRN_(235–526) (domain or fragment), sequence (Q14191 2-1432): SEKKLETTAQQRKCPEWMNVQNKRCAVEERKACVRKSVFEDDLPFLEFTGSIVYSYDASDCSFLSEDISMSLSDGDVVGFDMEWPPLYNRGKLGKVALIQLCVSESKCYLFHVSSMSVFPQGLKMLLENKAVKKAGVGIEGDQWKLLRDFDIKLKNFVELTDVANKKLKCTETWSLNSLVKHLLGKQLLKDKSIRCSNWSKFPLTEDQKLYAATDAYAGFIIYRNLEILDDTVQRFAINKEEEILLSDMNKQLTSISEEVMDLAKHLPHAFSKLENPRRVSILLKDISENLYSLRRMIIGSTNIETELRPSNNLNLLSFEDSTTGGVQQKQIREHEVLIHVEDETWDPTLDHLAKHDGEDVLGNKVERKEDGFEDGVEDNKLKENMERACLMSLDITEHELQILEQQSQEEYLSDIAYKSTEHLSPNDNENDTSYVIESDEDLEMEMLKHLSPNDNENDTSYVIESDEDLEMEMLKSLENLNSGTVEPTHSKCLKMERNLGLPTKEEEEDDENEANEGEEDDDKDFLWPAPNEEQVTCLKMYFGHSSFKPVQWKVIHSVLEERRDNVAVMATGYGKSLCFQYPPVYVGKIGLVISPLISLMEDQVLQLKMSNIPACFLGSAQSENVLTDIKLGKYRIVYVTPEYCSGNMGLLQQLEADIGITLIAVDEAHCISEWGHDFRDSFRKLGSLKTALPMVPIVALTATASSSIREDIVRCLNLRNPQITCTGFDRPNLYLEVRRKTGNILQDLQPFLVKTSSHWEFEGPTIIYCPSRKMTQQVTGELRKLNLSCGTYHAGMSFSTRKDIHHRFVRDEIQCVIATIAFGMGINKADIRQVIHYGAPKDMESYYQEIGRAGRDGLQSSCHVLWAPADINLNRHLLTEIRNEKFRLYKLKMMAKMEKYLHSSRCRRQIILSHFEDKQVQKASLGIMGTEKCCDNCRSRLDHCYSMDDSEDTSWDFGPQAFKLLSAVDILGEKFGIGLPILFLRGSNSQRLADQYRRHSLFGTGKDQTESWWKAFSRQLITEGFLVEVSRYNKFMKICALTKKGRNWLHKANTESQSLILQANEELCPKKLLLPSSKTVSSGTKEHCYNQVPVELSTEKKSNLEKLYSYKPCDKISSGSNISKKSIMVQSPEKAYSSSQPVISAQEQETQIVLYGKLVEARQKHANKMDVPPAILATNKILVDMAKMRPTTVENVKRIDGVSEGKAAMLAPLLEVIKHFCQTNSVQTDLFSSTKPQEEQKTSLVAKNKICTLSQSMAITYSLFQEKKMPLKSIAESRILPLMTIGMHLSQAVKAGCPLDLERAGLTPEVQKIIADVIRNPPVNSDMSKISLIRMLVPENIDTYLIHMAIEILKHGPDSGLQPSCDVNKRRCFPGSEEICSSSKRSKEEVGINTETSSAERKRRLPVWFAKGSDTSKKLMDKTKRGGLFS

WRN_(235–526) (domain or fragment) displayed a stoichiometry N of 6.
